According to IntAct's records for PubMed 18335997:

B1: Hemojuvelin (Homo sapiens), Q6ZVN8 (parent)
chain: MGEPGQSPSPRSSHGSPPTLSTLTLLLLLCGHAHSQCKILRCNAEYVSSTLSLRGGGSSGALRGGGGGGRGGGVGSGGLCRALRSYALCTRRTARTCRGDLAFHSAVHGIEDLMIQHNCSRQGPTAPPPPRGPALPGAGSGLPAPDPCDYEGRFSRLHGRPPGFLHCASFGDPHVRSFHHHFHTCRVQGAWPLLDNDFLFVQATSSPMALGANATATRKLTIIFKNMQECIDQKVYQAEVDNLPVAFEDGSINGGDRPGGSSLSIQTANPGNHVEIQAAYIGTTIIIRQTAGQLSFSIKVAEDVAMAFSAEQDLQLCVGGCPPSQRLSRSERNRRGAITIDTARRLCKEGLPVEDAYFHSCVFDVLISGDPNFTVAAQAALEDARAFLPDLEKLHLFPSDAGVPLSSATLLAPLLSGLFVLWLCIQ
partner: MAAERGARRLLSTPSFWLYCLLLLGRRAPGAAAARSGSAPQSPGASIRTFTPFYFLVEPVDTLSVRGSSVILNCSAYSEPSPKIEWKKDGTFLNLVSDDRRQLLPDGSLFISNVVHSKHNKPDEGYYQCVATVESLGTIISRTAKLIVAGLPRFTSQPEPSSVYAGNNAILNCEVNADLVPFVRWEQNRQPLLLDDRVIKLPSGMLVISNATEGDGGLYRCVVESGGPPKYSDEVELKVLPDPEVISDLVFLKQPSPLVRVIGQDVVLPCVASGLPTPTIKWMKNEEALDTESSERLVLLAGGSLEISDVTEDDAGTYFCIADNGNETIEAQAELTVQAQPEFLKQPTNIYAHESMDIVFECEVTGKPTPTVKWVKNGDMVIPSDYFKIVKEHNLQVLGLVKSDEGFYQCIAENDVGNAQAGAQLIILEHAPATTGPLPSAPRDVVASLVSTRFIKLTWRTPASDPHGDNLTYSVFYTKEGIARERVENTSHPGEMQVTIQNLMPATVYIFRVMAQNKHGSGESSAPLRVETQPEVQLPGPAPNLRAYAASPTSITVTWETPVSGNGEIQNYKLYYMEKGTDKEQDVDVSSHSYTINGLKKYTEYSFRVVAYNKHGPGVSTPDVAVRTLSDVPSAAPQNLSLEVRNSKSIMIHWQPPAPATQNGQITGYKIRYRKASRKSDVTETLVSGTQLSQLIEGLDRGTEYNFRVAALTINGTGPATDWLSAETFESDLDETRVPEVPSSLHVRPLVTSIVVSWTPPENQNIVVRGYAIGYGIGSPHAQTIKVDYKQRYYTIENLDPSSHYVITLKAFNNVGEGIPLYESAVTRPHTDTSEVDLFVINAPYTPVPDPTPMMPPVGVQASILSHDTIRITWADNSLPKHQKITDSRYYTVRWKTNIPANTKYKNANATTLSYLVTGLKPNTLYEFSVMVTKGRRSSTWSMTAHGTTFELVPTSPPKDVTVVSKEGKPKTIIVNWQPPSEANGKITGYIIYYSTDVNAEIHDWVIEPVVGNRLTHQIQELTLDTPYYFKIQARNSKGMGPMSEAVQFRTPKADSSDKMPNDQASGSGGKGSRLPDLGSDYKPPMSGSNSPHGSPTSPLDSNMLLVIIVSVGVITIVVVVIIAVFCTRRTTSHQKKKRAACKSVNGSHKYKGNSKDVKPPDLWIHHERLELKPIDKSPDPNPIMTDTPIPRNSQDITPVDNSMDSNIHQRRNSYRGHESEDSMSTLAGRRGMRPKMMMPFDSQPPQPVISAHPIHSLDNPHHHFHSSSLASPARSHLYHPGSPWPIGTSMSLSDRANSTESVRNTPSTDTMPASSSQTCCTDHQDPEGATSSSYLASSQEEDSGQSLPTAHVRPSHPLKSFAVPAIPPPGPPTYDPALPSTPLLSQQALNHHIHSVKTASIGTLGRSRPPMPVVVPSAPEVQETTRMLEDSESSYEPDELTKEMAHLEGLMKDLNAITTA

Variants of: B1
Settings: with neo1_human NEO1, Q92859

Row | effect of a mutation on the interaction | Variant
1 | decreasing interaction strength | MGEPGQSPSPRSSHGSPPTLSTLTLLLLLCGHAHSQCKILRCNAEYVSSTLSLRGGGSSGALRGGGGGGRGGGVGSGGLCRALRSYALCTRRTARTCRGDLAFHSAVHGIEDLMIQHNCSRQGPTAPPPPRGPALPGAGSGLPAPDPCDYEGRFSRLHGRPPGFLHCASFGAPHVRSFHHHFHTCRVQGAWPLLDNDFLFVQATSSPMALGANATATRKLTIIFKNMQECIDQKVYQAEVDNLPVAFEDGSINGGDRPGGSSLSIQTANPGNHVEIQAAYIGTTIIIRQTAGQLSFSIKVAEDVAMAFSAEQDLQLCVGGCPPSQRLSRSERNRRGAITIDTARRLCKEGLPVEDAYFHSCVFDVLISGDPNFTVAAQAALEDARAFLPDLEKLHLFPSDAGVPLSSATLLAPLLSGLFVLWLCIQ [D172A]
